Test results taken from the supplement of paper PMC5998384.

Assays:
[1] = system: HeLa Kyoto; assay: solubility in G1/S (NP-40 vs SDS abundance) (log2 ratio); higher = more soluble; conditions: cell cycle stage: G1/S
[2] = system: HeLa Kyoto; assay: melting temperature (median over replicates), in situ; higher = more thermally stable
[3] = system: HeLa Kyoto; assay: solubility change mitosis vs G1/S (difference of NP-40 vs SDS log2 ratios) (log2 ratio difference); higher = more soluble in mitosis
[4] = system: HeLa Kyoto; assay: thermal stability score vs G1/S (z-score of summed log2 fold changes over temperatures); higher = more thermally stable than in G1/S
[5] = cell cycle stage: early G1 (4.5 h after nocodazole release)
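Throughout, for melting temperature (median over replicates), in situ: HeLa Kyoto cells synchronized by double thymidine or nocodazole block, proteins quantified by TMT10plex mass spectrometry, three independent biological replicates.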
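Throughout, for solubility change mitosis vs G1/S (difference of NP-40 vs SDS log2 ratios): synchronized HeLa Kyoto cells (double thymidine block for G1/S, nocodazole release for mitosis), protein amounts in NP-40 versus SDS lysates quantified by mass spectrometry, three biological replicates.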
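Throughout, for solubility in G1/S (NP-40 vs SDS abundance): HeLa Kyoto cells arrested at G1/S by double thymidine block, proteins quantified by TMT10plex mass spectrometry in mild NP-40 versus SDS extracts, three biological replicates.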
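Throughout, for thermal stability score vs G1/S (z-score of summed log2 fold changes over temperatures): synchronized HeLa Kyoto cells, proteins quantified by TMT10plex mass spectrometry, three biological replicates, mitosis taken 0.5 h after nocodazole release, G1/S directly after double thymidine block.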

Sequence of PPIE (chain, as listed by the source): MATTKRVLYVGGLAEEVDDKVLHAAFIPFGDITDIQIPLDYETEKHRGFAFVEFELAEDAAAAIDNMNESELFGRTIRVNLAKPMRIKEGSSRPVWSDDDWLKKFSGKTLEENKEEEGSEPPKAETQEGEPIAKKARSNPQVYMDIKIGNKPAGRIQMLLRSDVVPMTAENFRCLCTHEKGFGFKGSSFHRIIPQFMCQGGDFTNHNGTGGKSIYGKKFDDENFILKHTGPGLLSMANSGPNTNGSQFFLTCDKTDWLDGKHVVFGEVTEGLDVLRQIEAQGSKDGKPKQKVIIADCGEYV

Substance	solubility in G1/S (log2) [1]	melting temperature ([2]; cell cycle stage: G1/S) [°C]	melting temperature ([2]; cell cycle stage: mitosis) [°C]	solubility change mitosis (log2) [3]	thermal stability score [4, 5]	thermal stability score ([4]; cell cycle stage: mitosis)
MWGDSRPANRTGPFRGSQEERFAPGWNRDYPPPPLKSHAQERHSGNFPGRDSLPFDFQGHSGPPFANVEEHSFSYGARDGPHGDYRGGEGPGHDFRGGDFSSSDFQSRDSSQLDFRGRDIHSGDFRDREGPPMDYRGGDGTSMDYRGREAPHMNYRDRDAHAVDFRGRDAPPSDFRGRGTYDLDFRGRDGSHADFRGRDLSDLDFRAREQSRSDFRNRDVSDLDFRDKDGTQVDFRGRGSGTTDLDFRDRDTPHSDFRGRHRSRTDQDFRGREMGSCMEFKDREMPPVDPNILDYIQPSTQDREHSGMNVNRREESTHDHTIERPAFGIQKGEFEHSETREGETQGVAFEHESPADFQNSQSPVQDQDKSQLSGREEQSSDAGLFKEEGGLDFLGRQDTDYRSMEYRDVDHRLPGSQMFGYGQSKSFPEGKTARDAQRDLQDQDYRTGPSEEKPSRLIRLSGVPEDATKEEILNAFRTPDGMPVKNLQLKEYNTGYDYGYVCVEFSLLEDAIGCMEANQGTLMIQDKEVTLEYVSSLDFWYCKRCKANIGGHRSSCSFCKNPREVTEAKQELITYPQPQKTSIPAPLEKQPNQPLRPADKEPEPRKREEGQESRLGHQKREAERYLPPSRREGPTFRRDRERESWSGETRQDGESKTIMLKRIYRSTPPEVIVEVLEPYVRLTTANVRIIKNRTGPMGHTYGFIDLDSHAEALRVVKILQNLDPPFSIDGKMVAVNLATGKRRNDSGDHSDHMHYYQGKKYFRDRRGGGRNSDWSSDTNRQGQQSSSDCYIYDSATGYYYDPLAGTYYDPNTQQEVYVPQDPGLPEEEEIKEKKPTSQGKSSSKKEMSKRDGKEKKDRGVTRFQENASEGKAPAEDVFKKPLPPTVKKEESPPPPKVVNPLIGLLGEYGGDSDYEEEEEEEQTPPPQPRTAQPQKREEQTKKENEEDKLTDWNKLACLLCRRQFPNKEVLIKHQQLSDLHKQNLEIHRKIKQSEQELAYLERREREGKFKGRGNDRREKLQSFDSPERKRIKYSRETDSDRKLVDKEDIDTSSKGGCVQQATGWRKGTGLGYGHPGLASSEEAEGRMRGPSVGASGRTSKRQSNETYRDAVRRVMFARYKELD [RBM6]	-0.757	48.2	50	0.361	1.19	1.84
MAGLSDLELRRELQALGFQPGPITDTTRDVYRNKLRRLRGEARLRDEERLREEARPRGEERLREEARLREDAPLRARPAAASPRAEPWLSQPASGSAYATPGAYGDIRPSAASWVGSRGLAYPARPAQLRRRASVRGSSEEDEDARTPDRATQGPGLAARRWWAASPAPARLPSSLLGPDPRPGLRATRAGPAGAARARPEVGRRLERWLSRLLLWASLGLLLVFLGILWVKMGKPSAPQEAEDNMKLLPVDCERKTDEFCQAKQKAALLELLHELYNFLAIQAGNFECGNPENLKSKCIPVMEAQEYIANVTSSSSAKFEAALTWILSSNKDVGIWLKGEDQSELVTTVDKVVCLESAHPRMGVGCRLSRALLTAVTNVLIFFWCLAFLWGLLILLKYRWRKLEEEEQAMYEMVKKIIDVVQDHYVDWEQDMERYPYVGILHVRDSLIPPQSRRRMKRVWDRAVEFLASNESRIQTESHRVAGEDMLVWRWTKPSSFSDSER [LEMD2]	-0.759	52.5	51.1	0.776	-1.63	-1.98
PPIE	0.351	49	51.7	0.13	1.18	2.29
MAEMATATRLLGWRVASWRLRPPLAGFVSQRAHSLLPVDDAINGLSEEQRQLRQTMAKFLQEHLAPKAQEIDRSNEFKNLREFWKQLGNLGVLGITAPVQYGGSGLGYLEHVLVMEEISRASGAVGLSYGAHSNLCINQLVRNGNEAQKEKYLPKLISGEYIGALAMSEPNAGSDVVSMKLKAEKKGNHYILNGNKFWITNGPDADVLIVYAKTDLAAVPASRGITAFIVEKGMPGFSTSKKLDKLGMRGSNTCELIFEDCKIPAANILGHENKGVYVLMSGLDLERLVLAGGPLGLMQAVLDHTIPYLHVREAFGQKIGHFQLMQGKMADMYTRLMACRQYVYNVAKACDEGHCTAKDCAGVILYSAECATQVALDGIQCFGGNGYINDFPMGRFLRDAKLYEIGAGTSEVRRLVIGRAFNADFH [IVD]	0.138	54	53.8	-0.107	-0.748	-4.11
